Target: full length, processed caspase-9 (residues 1-416) (UniProt P55211)
Assay: gel filtration chromatography of equi-molar Apaf-1 (1-591) and caspase-9

Chain of full length, processed caspase-9 (residues 1-416) (P55211 whole entry, form in doubt, the tested form may be a part): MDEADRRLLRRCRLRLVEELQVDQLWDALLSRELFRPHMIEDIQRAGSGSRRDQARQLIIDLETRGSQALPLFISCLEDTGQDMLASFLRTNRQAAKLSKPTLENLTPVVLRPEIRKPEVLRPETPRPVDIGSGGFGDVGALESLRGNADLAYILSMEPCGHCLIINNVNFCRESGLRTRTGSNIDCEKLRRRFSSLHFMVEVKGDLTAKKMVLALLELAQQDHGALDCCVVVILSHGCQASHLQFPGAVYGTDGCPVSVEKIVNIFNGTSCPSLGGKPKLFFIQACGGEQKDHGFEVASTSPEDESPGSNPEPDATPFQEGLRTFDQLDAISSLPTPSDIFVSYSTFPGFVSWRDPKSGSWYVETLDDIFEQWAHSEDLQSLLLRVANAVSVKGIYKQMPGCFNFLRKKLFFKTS

apparent molecular mass of the complex peak on gel filtration: 130 kilodaltons
Substance: soluble Apaf-1 fragment (residues 1-591 of full length Apaf-1) (from UniProt O14727 1-591)

From patent US20060106200A1
